{
  "source": "the DeepSol protein solubility set",
  "data": [
    {"assay": "soluble on expression in E. coli; label from the status in PepcDB or PDB records", "values": [
      {"sequence": "MKYDILIAGVGGQGVVLASRILALSAMKAGFRVSTAETIGMSQREGSVSSHVRIGDEISGSLIPEGKADLLIGLEPAETIRNLPFLKEGGKIIVNSHAIPPASKPPGSPEYNPGALLSYLKTGFPDFFCLDFTRLAEEAGTYRAANVAMIGAAAGMGILPFSKEIVLALMEAEIPEKHRAVNRAAFEEAVKKIK", "soluble on expression in E. coli": "not soluble"},
      {"sequence": "MKYFQEADIAVTVCDKTGKIIDMNEQSRQVNLKPGQELIGSNVLDCHPEPARSMLEEMMRQERKHVYTIEKNGRKKLIYQIPWYEKGEYMGFLELSMVIPFEMEHKIRTPKPAND", "soluble on expression in E. coli": "not soluble"},
      {"sequence": "MKYLSAKSKLNIDAQDGGFTTTLLSYCLENGILDAVVVVGDKNWKPVAYLATTPTELLKSTKSKYSISPNNKLLEYATENYDKVGLVGLPCHILGGLQFDLTLKVGLFCTKNFYYDTIKSIIKERFGVNIDEVAKMNITKGKFVVETLKKKGFAGTEKVVYEIPIKEIEKLCNLGCRVCTDFSAKYADVSVGSVGSEDGWNTVIVRNKMVEDIINEMAEKGLIEVKETVDIKAIEKLENIKKKNEEINKCSAYFAVCPALFLEHHHHHH", "soluble on expression in E. coli": "not soluble"},
      {"sequence": "MKYMIPDEEFIRREGVPITKEEIRAVSIGKLNLNKDDVVVDVGCGSGGMTVEIAKRCKFVYAIDYLDGAIEVTKQNLAKFNIKNCQIIKGRAEDVLDKLEFNKAFIGGTKNIEKIIEILDKKKINHIVANTIVLENAAKIINEFESRGYNVDAVNVFISYAKKIPSGHMFLAKNPITIIKAVR", "soluble on expression in E. coli": "soluble"},
      {"sequence": "MKYYHHHHHHDYDIPTTENLYFQGAMAFDGEDEVTGPDADRARAAAVQAVPGGTAGEVETETGEGAAAYGVLVTRPDGTRVEVHLDRDFRVLDTEPADGDGG", "soluble on expression in E. coli": "soluble"},
      {"sequence": "MKYYRRALYDKFVHFYLVISDDGSSEAQLRGKMGGLVRKARKKISPDWPKEEQIHQLLQLFYGDWGFHCDPEDYFYARNLYLPYVFEHRQGMPVTLGAMVFYLAEALDLPIYPVNFPTQLILRAEVRDEVAFIDPWDGTYISQEKLQQLYEGAFGFGAKIQPEELDRADLSLLYSRFEQLAKNALIREEHNDMAYHYIKNLMITDAENPYHIRDRGLVLAQMGAYPSALKDLEFFVEHCPKDPTAAFIRTQLLELKGEINKDTFPLHLEHHHHHH", "soluble on expression in E. coli": "not soluble"},
      {"sequence": "MLAAKNILNRSSLSSSFRIATRLQSTKVQGSVIGIDLGTTNSAVAIMEGKVPKIIENAEGSRTTPSVVAFTKEGERLVGIPAKRQAVVNPENTLFATKRLIGRRFEDAEVQRDIKQVPYKIVKHSNGDAWVEARGQTYSPAQIGGFVLNKMKETAEAYLGKPVKNAVVTVPAYFNDSQRQATKDAGQIVGLNVLRVVNEPTAAALAYGLEKSDSKVVAVFDLGGGTFDISILDIDNGVFEVKSTNGDTHLGGEDFDIYLLREIVSRFKTETGIDLENDRMAIQRIREAAEKAKIELSSTVSTEINLPFITADASGPKHINMKFSRAQFETLTAPLVKRTVDPVKKALKDAGLSTSDISEVLLVGGMSRMPKVVETVKSLFGKDPSKAVNPDEAVAIGAAVQGAVLSGEVTDVLLLDVTPLSLGIETLGGVFTRLIPRNTTIPTKKSQIFSTAAAGQTSVEIRVFQGERELVRDNKLIGNFTLAGIPPAPKGVPQIEVTFDIDADGIINVSARDKATNKDSSITVAGSSGLSENEIEQMVNDAEKFKSQDEARKQAIETANKADQLANDTENSLKEFEGKVDKAEAQKVRDQITSLKELVARVQGGEEVNAEELKTKTEELQTSSMKLFEQLYKNDSNNNNNNNGNNAESGETKQ", "soluble on expression in E. coli": "not soluble"},
      {"sequence": "MLAMVNKVLDWIRSLFWKEEMELTLVGLQNSGKTTFVNVIASGQFTEDMIPTVGFNMRKITKGNVTIKLWDIGGQPRFRSMWERYCRGVNAIVFMVDAADEEKLEASRNELMQLLDKPQLDAIPVLVLGNKKDLPGALDERQLIERMNLSSIQNREICCYSISCKEKENIDITLQWLIDHSKAQR", "soluble on expression in E. coli": "not soluble"},
      {"sequence": "MLAPWQPLLEWWFGWGTSAQAVADEKSTLWFGKHYDADAHALFGDLVEHALAGGLEEWQQTPQGWLGLLILLDQLPRMIYRDTPRAFEGDRRAQVVAMQGLQKGWDYQLLPIQRVFVLLVLEHAEVLDWQNLCVERYRMLLDEQPEANRRLFEGFLDYAEQHQRVIARFGRFPHRNLVLERPSTSEEMDFLLEPGSRF", "soluble on expression in E. coli": "not soluble"},
      {"sequence": "MLASARRALHPGHPPAIHRAMNSEIDPGRCPLCQQSNRCTLAYPTSATQACWCFTTEIDAAVLERIPAELRRRACLCPRCAQLLPPDADD", "soluble on expression in E. coli": "not soluble"},
      {"sequence": "MLATPFWYNAALKVLKPVYRWRIKKRAENEMRYQQECRERFGPFQQPQNRHALWFHAVSVGETNAAQPLIEYYLKLGHPVLVTNTTKTGQARAKSLFLKSPYLELFQAVYLPVDQIFLLKQFFELYQPKLLALVETELWPNLIDQAQHYGVPTFLINARLSEKSAQGYARVSALSNAMLSRLTGLLAQDQSTQQRFIGLGLAREKAQVVGNIKFDIDVPLLFVLEHHHHHH", "soluble on expression in E. coli": "not soluble"},
      {"sequence": "MLCQKCQKRVANVQMTQIINNNKTVIYLCEQCAREEGKFNVISPFSINDFFSGFMGFPYMASAPQQNQDVVCETCGMSYEEFKKVGKLGCSNCYKTYGDRLVPLLRRLHGNIQYNGKFPSRAFGSIKISREIEKLKEQLNIAIKNEEYEKAAILRDQIRNLESNQNNM", "soluble on expression in E. coli": "not soluble"},
      {"sequence": "MLCVRRRCISAPMTDTTILPRPEVSGDFLVAALYHFARLPRFESLREQLFELCQKNGVKGTLLLAAEGINGTIAGPDAGVQAVLSFLRAQPEFAALEHKESRASHMPFVRLKVKLKKEIVTMGVPDIDPNRIVGTYVDPRDWNALISDPDTIVIDTRNDYETAIGVFKGAVDPQTKTFREFPDWVKNNPGLHNKPKIAMYCTGGIRCEKATAFMKEQGFDEVYHLKGGILKYLEEVPEEESLWEGACFVFDERVSVVHGLAEGDHQLCHACRNPITPDVRLSPKFEEGVSCPSCYDERSEDDRQRFRDRQQQIELAKTRGERHLGRLEHHHHHH", "soluble on expression in E. coli": "soluble"},
      {"sequence": "MLDDLPGVADNAKKILFDMKCTTVIDDCNVHLRDVLNLLEDEMHSFRLSSIEANDLDKLYDTFYYYGKKEQLIEFLLDQMTNAINFKQADKDFLIYSWLVEKLTEEQICEMLARINENTQYHWNNNLNSFVDEFVAYYKETNGIDLRINYLGAIYTNLKILSDEYTLSISDYELIFKFFEDIIESHSETIFDFQRKYKKDIETNFGNSLENFPKLNKLLFE", "soluble on expression in E. coli": "not soluble"},
      {"sequence": "MLDFAQLPPEVNSALMYAGPGSGPMLAAAAAWEALAAELQTTASTYDALITGLADGPWQGSSAASMVAAATPQVAWLRSTAGQAEQAGSQAVAAASAYEAAFFATVPPPEIAANRALLMALLATNFLGQNTAAIAATEAQYAEMWAQDAAAMYGYAGASAAATQLSPFNPAAQTINPAGLASQAASVGQAVSGAANAQALTDIPKALFGLSGIFTNEPPWLTDLGKALGLTGHTWSSDGSGLIVGGVLGDFVQGVTGSAELDASVAMDTFGKWVSPARLMVTQFKDYFGLAHDLPKWASEGAKAAGEAAKALPAAVPAIPSAGLSGVAGAVGQAASVGGLKVPAVWTATTPAASPAVLAASNGLGAAAAAEGSTHAFGGMPLMGSGAGRAFNNFAAPRYGFKPTVIAQPPAGG", "soluble on expression in E. coli": "not soluble"},
      {"sequence": "MLDGLFNWAIARNIMNYNPLPTDKPNRPQGFIPYIYKREELKKIIDKSMTYRSFYTTFYPETIRGIIMLTYLWGLRPSETLGIEMADVHLGTDNYIVIKQMKFYNTRIVTFNDRSLLL", "soluble on expression in E. coli": "not soluble"},
      {"sequence": "MLDKVIYSLLRTQDPGLAQELYFRLQAKEQSFAEVAQKYSQGPESQTGGLVGPVEQSSLHPAMVQLLSSCQPGQISPPTRITELEHHHHHH", "soluble on expression in E. coli": "not soluble"},
      {"sequence": "MLDVEVEEKAGPKGKHNKDRTVYSYGTEKTSVVLDGRKVKIERPRLCVYKIRKLTLKDSNSFSRRTR", "soluble on expression in E. coli": "not soluble"},
      {"sequence": "MLEIEIVYGLPDRQVLKTMQLAEGTTVRAAALQSGLDGIFEDLNLHSAPLGIFGKAVKDDTPLRDGDRIEVYRPLLIDPKEARRKRVQNQEE", "soluble on expression in E. coli": "not soluble"},
      {"sequence": "MLEKSFLKSKQLFLCGLGVLMLQACTCPNTSQRNSFLQDVPYWMLQNRSEYITQGVDSSHIVDGKKTEEIEKIATKRATIRVAQNIVHKLKEAYLSKTNRIKQKITNEMFIQMTQPIYDSLMNVDRLGIYINPNNEEVFALVRARGFDKDALSEGLHKMSLDNQAVSILVAKVEEIFKDSVNYGDVKVPIAM", "soluble on expression in E. coli": "not soluble"},
      {"sequence": "MLEKVYVALIHYPIKGKDGSIISTAVTNLDVHDIARTARTYNLKGYYIVTNLRAQQDMVSKMLKFWREGFGSRYNPSRAESLKLVKLKSYLEDVLEDIESVEGERPLIFFTSAKKRENDISFEEGRRIIIETEKPVLILLGTGWGLPDEILEISDYVLEPIRAQSDFNHLSVRAAAAIIIDRLIGENYARRD", "soluble on expression in E. coli": "soluble"},
      {"sequence": "MLESVVAYGIIAGARAITGLRSLWLGTTPIPKQRIYYANHSSHGDFVLLWASLPPEVRRRTRPVAGADYWNKAGLRSYVINKVFNGVLVDRQRSEANANPLEPLDRALDGGDSLIIFPEGTRNLDDEVKLLPFKSGIYHLSLAHPDVELVPVWLANLNRVMPKGRMLPLPLLCTLSFGKPLVATAEEGKEAFLERARMALLDLAPEEEA", "soluble on expression in E. coli": "not soluble"},
      {"sequence": "MLFSLKYLGMTLVEQPKGEELSAAAIKRIVATAKASGKKLQKVTLKVSPRGIILTDNLTNQLIENVSIYRISYCTADKMHDKVFAYIAQSQHNQSLECHAFLCTKRKMAQAVTLTVAQAFKVAFEFWQVSKEEKEKRDKASQEGGDVLGARQDCTPPLKSLVATGNLLDLEETAKAPLSTVSANTTNMDEVPRPQALSGSSVVWELDDGLDEAFSRLAQSRTNPQVLDTGLTAQDMHYAQCLSPVDWDKPDSSGTEQDDLFSF", "soluble on expression in E. coli": "soluble"},
      {"sequence": "MLGRRAVSVHRFLSRAARQSVTAASSAQPSLQAKTSLLEPLVQNVRITSSANFHMSAVRMSDVITVEGPAFAESISEGDIRWLKQKGDHVNEDELVAEIETDKTSVEVPAPQAGTIVEFLVEDGAKVTAKQKLYKLQPGAGGGSSSAPAKEEPKSAPAKEESKPAPAKEDSKPAVTAAAPPKPVSGDIPKSAPPVARPPSTPSSSTPVGAVPVTRVVVPKGVDPSHAITGARDEVRVKANRMRMRIAQRLKDAQNTYAMLTTFNEIDMSSLIEMRKTYQKDFVAKHGVKLGMMSPFVRAAAYALQESPVVNAVLDENEIVYRHFVDISVAVATPKGLVVPVLRNVESMNYAQIELELANLGVKARDGKLAVEDMEGGTFTISNGGVFGSMFGTPIINPPQSAILGMHGVFDRVVPVNGKPEIRPIMQIALTYDHRLIDGREAVTFLKKIKTAVEDPRIMFMNL", "soluble on expression in E. coli": "not soluble"},
      {"sequence": "MLIACRLCAKAVQQGLKTVVYVPDERLAGQFDKLLWTFTPTGFVPHCRVDNKLADVTPVIMNSRPVLMEAGCFGVLLNLDADVPPGFEQFPRVVEIVDEAEDGKLQARKRYRHYQEQGHDVRHHRLDGN", "soluble on expression in E. coli": "not soluble"},
      {"sequence": "MLIKQTDYFRIYRVINSLLISQNADPASASMYFSTFGAFILQQHYKVKAVPKGGLAAYNLGGTVLLFADHREDGYVTGAGENFHCWVEADGWAIDFMAPAFSEGTDALAVPAKMFQRPLSAMAASINDLGQSGDFFYRSEPEATARRFADWHKQAMIGDMASVAANWFRKSPKQMAASLSVTDRDGKARTVPLTGEMLTGAW", "soluble on expression in E. coli": "soluble"},
      {"sequence": "MLIRTEAPADILTIDRLLKHAFPTDAEANLVMRLRENGKLTLSLVACTDEGEVIGHALFSPVTLNGEDLSWQGLAPLAVHEDYRRQGIGAELIKEGFESLRDFGYPVCVVLGEPNYYARQGFNAGEEMGFECAWEVPEGAFRVAELVEGQCTGRSGRIDYAPEFSEL", "soluble on expression in E. coli": "not soluble"},
      {"sequence": "MLIRVEIPIDAPGIDALLRRSFESDAEAKLVHDLREDGFLTLGLVATDDEGQVVGYVAFSPVDVQGEDLQWVGMAPLAVDEKYRGQGLARQLVYEGLDSLNEFGYAAVVTLGDPALYSRFGFELAAHYDLHCRWPGTESAFQVHRLAEDALEGVTGLVEYHDHFNRF", "soluble on expression in E. coli": "not soluble"}
    ]}
  ]
}
